Measurements published in article PMC2175261 (The Journal of Cell Biology, 2000).
Where two headings read alike, the source gives them in different places.

B1: C2B domain of synaptotagmin Ib (residues 248–421) (domain or fragment, rat, UniProt P21707 248-421, looked up)
chain: NTVDFGHVTEEWRDLQSAEKEEQEKLGDICFSLRYVPTAGKLTVVILEAKNLKKMDVGGLSDPYVKIHLMQNGKRLKKKKTTIKKNTLNPYYNESFSFEVPFEQIQKVQVVVTVLDYDKIGKNDAIGKVFVGYNSTGAELRHWSDMLANPRRPIAQWHTLQVEEEVDAMLAVKK
B2: cytoplasmic domain of synaptotagmin Ib, D230,232N mutant (domain or fragment, rat, UniProt P21707 96-421, looked up)
chain: GGKNAINMKDVKDLGKTMKDQALKDDDAETGLTDGEEKEEPKEEEKLGKLQYSLDYDFQNNQLLVGIIQAAELPALDMGGTSDPYVKVFLLPDKKKKFETKVHRKTLNPVFNEQFTFKVPYSELGGKTLVMAVYNFNRFSKHDIIGEFKVPMNTVDFGHVTEEWRDLQSAEKEEQEKLGDICFSLRYVPTAGKLTVVILEAKNLKKMDVGGLSDPYVKIHLMQNGKRLKKKKTTIKKNTLNPYYNESFSFEVPFEQIQKVQVVVTVLDYDKIGKNDAIGKVFVGYNSTGAELRHWSDMLANPRRPIAQWHTLQVEEEVDAMLAVKK

What was measured:
[1] = target: the molecule itself; test: pull-down
[2] = target: the molecule itself; test: pull-down; remark: listed apart in the source

Protein | binding result [1] | binding result [2]
B1 | binds | 
B2 |  | binds
